Laboratory results published in article PMC5944358.

Biological target: MVN-DAVEI4-3Trp (not stated | HIV-1 (strain not stated))
Assay: ELISA

Question: For “HIV-1 YU2 gp120 (from UniProt P35961 32-498) (natural protein)”, which EC50 is on record?
Answer: 79 nM
